US20160272691A1, “COMPOSITIONS AND METHODS FOR TREATING CONDITIONS ASSOCIATED WITH y-HERPESVIRUSES” (NDSU RESEARCH FOUNDATION, priority 2013, published 2016)

Columns and labels:
[1] = target: Bcl-XL expressed in MCF7 cells (UniProt Q07817); assay: cell-based or functional assay
[2] = target: T1, M11 expressed in MCF7 cells (murine γHV68) (UniProt P89884); assay: cell-based or functional assay
T1 sequence: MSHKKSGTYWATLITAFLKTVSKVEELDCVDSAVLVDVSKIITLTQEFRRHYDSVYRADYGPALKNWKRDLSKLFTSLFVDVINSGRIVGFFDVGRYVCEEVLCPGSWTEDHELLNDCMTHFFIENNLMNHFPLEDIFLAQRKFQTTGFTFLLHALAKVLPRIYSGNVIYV

Chain of Bcl-XL expressed in MCF7 cells (Q07817 whole entry): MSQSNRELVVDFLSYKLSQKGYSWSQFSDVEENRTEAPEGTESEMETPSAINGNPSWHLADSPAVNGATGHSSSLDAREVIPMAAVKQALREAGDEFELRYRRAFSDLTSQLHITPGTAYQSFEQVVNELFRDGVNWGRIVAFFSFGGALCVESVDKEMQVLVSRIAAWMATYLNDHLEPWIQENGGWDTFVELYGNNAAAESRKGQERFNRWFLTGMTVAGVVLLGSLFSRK

Q: For “Beclin 1 L112A mutant, expressed in MCF7 cells (from UniProt Q14457 1-450)”, which Bcl-XL-mediated down-regulation of autophagy (GFP-LC3 puncta per cell, MCF7) [1] is on record?
A: The Bcl-XL-mediated down-regulation of autophagy (GFP-LC3 puncta per cell, MCF7) was 0.0621 p (t-test).

Q: And the M11-mediated down-regulation of autophagy (GFP-LC3 puncta per cell, MCF7) [2]?
A: Its M11-mediated down-regulation of autophagy (GFP-LC3 puncta per cell, MCF7) is 0.00065 p (t-test).

Q: Which Bcl-XL-mediated down-regulation of autophagy (GFP-LC3 puncta per cell, MCF7) [1] does the source give for “Beclin 1 G120E+D121A double mutant, expressed in MCF7 cells (from UniProt Q14457 1-450)” here?
A: The Bcl-XL-mediated down-regulation of autophagy (GFP-LC3 puncta per cell, MCF7) was 0.00079 p (t-test).

Q: What about the M11-mediated down-regulation of autophagy (GFP-LC3 puncta per cell, MCF7) [2] of the same substance?
A: Its M11-mediated down-regulation of autophagy (GFP-LC3 puncta per cell, MCF7) is 0.228 p (t-test).

Q: Which results are given for “Beclin 1 K117A mutant, expressed in MCF7 cells (from UniProt Q14457 1-450)”?
A: Bcl-XL-mediated down-regulation of autophagy (GFP-LC3 puncta per cell, MCF7) [1]: 0.504 p (t-test); M11-mediated down-regulation of autophagy (GFP-LC3 puncta per cell, MCF7) [2]: 0.157 p (t-test)

Q: For “Beclin 1 G120E mutant, expressed in MCF7 cells (from UniProt Q14457 1-450)”, which Bcl-XL-mediated down-regulation of autophagy (GFP-LC3 puncta per cell, MCF7) [1] is on record?
A: Its Bcl-XL-mediated down-regulation of autophagy (GFP-LC3 puncta per cell, MCF7) is 0.0119 p (t-test).

Q: What about the M11-mediated down-regulation of autophagy (GFP-LC3 puncta per cell, MCF7) [2] of the same substance?
A: Its M11-mediated down-regulation of autophagy (GFP-LC3 puncta per cell, MCF7) is 0.0313 p (t-test).

Q: How did the Bcl-XL-mediated down-regulation of autophagy (GFP-LC3 puncta per cell, MCF7) [1] turn out when “Beclin 1 F123A mutant, expressed in MCF7 cells (from UniProt Q14457 1-450)” was run?
A: The Bcl-XL-mediated down-regulation of autophagy (GFP-LC3 puncta per cell, MCF7) was 0.00246 p (t-test).

Q: What about the M11-mediated down-regulation of autophagy (GFP-LC3 puncta per cell, MCF7) [2] of the same substance?
A: Its M11-mediated down-regulation of autophagy (GFP-LC3 puncta per cell, MCF7) is 0.0107 p (t-test).

Q: “Beclin 1 L116A mutant, expressed in MCF7 cells (from UniProt Q14457 1-450)” was tested. Which Bcl-XL-mediated down-regulation of autophagy (GFP-LC3 puncta per cell, MCF7) [1] did it give?
A: Its Bcl-XL-mediated down-regulation of autophagy (GFP-LC3 puncta per cell, MCF7) is 0.00212 p (t-test).

Q: And the M11-mediated down-regulation of autophagy (GFP-LC3 puncta per cell, MCF7) [2]?
A: Its M11-mediated down-regulation of autophagy (GFP-LC3 puncta per cell, MCF7) is 0.00432 p (t-test).
